Laboratory results reported in the nanobody polyreactivity screen of Harvey et al. (2022).

Experiment: yeast display, Sf9 membrane polyspecificity reagent, FACS + sequencing; frameworks hold sequencing errors
Procedure, shortened: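 Using colony PCR, genes from sorted yeast display clones were amplified, then sequenced on MiSeq at 2 × 250 and filtered by CDR length. The clones had been stained with 10% biotinylated, detergent-solubilized Sf9 membrane reagent for 1 hour at 4 °C and sorted by FACS into low and high (top ~1%) gates on anti-HA and streptavidin fluorescence. Polyreactivity labels come from the gate of origin.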

Row | Sequence | polyreactivity (PSR sort gate)
1 | QVQLVESGGGLVQAGGSLRLSCAASGSTFYDYVMGWYRQAPGKERELVAAITGDGTTDYADSVKGRFTISRDNAKNTVYLQMNSLKPEDTAVYYCNADISLDYDYWGQGTQVTVSS | low polyreactivity
2 | QVQLVESGGGLVQAGGSLRLSCAASGRIFVRNAMGWYRPAPGKERELVAGITRGGGTNFADSVKGSFTISRDNAKNTVYLQMNSLKPEVTAVYDCNALHRARLFGHYPYESWGHGTQVTVSS | high polyreactivity
3 | QVQLVESGGGLVQAGGSLRLSCAASGSTFGAYAMGWYRQAPGKEMELVAAISRRGGSTYYADSVKGRFTISRDNAKNTVYLQMNSLKPEDTAVYYCNAVGTRVDGEHYYWGQGTKVTVSS | high polyreactivity
4 | QVQLVESGGGLVQAGGSLRLSCAASGFTFNSYAMGWYRQAPGKERELVAAISSSGGRTYYADSVKGRFTISRDNAKNTVYLQMNSLKPEETAVYYCNAVLVSYYSVGYDYWGQGTQVTVSS | high polyreactivity
5 | QVQLVESGGGLVQAGGSLRLSCAASGSTFGPYAMGWYRQAPGKERELVAAITSSGGTTYYADSVKGRFTISRDNAKNTVYLQMNSLKPEDTAVYYCNTRRHGWKGVAYDYWGQGTQVTVSS | low polyreactivity
6 | QLQLVESGGGLVQAGGSLRLSCAASGYTFRFNAMGWYRQAPGKEREFVAAIDFGGAGTYYADSVKGRFTISRDNAKNTVYLQMNSLKPEDTAVYYCAADGQWYYAPFRGGDYENDYWGQGTQVTVSS | low polyreactivity
7 | QVQLVESGGGLVQAGGSLRLSCAASGRTFGRYAMVWSRQAPGKERELVAAITRGGGSTYYADSVKGRFTISRDNAKYTVYLQMNSLKPEDTAVYYCAARNFRSPYGYDYWGQGTQVTVSS | high polyreactivity
8 | QVQLVESGGGLVQAGASLRLSCAASVSIFDTNAMGWYRQAPGKERELVASISSGGGSTYYADSVKGRFTISRDNAKNTVYLQMNSLKPEDTAVYFCARRIGHGSRPYWLETWRYAYDYWGQGSQVTVSS | low polyreactivity
9 | QVQLVESGGGLVQAGGSLRLSCAASGSIFHVYGMGWYRQAPGKEREFVADITSRGTRTYYADSVKGRFTISRDNAKNTVYLQMNSLKPEDTAVYYCNTLVGVDFWLVDYWGQVTQVTVSS | low polyreactivity
10 | QVQHVESGGGLVQAGGSLRLSCAASGAIFWGYAMGWYRQAPGKERELVATISWTGGSTYYADSVKGRFTISRDNAKNTVYLQMNSLKPEDTAVYYCAKVIIHYYYLVNLVDVDYWGQGTQVTVSS | low polyreactivity
11 | QVQLVESGGGLVQAGGSLRLSCAASGSIFRVYGMGWYRQAPGKERELVAAITWSGGSTYYADSVKGRFTISRDNAKNTVYLQMNSLKPEDTAVYYCAARHKYAFWTAFGNYWGQGTQVTVSS | high polyreactivity
12 | QVQLVESGGGLVQAGGSLRLSCAASGRIFVRYAMGWYRQAPGKESEFVADIDGGGGRTYADSVKGRFTISRDNAKNTVYLLMNSLKPEDTAVYYCNAYVYSIHWCDLYWSEYDYWGQGTQVTVSS | high polyreactivity
13 | QVQLVESGGGLVQAGGSLRLSCAASGRIFPLYTMGWYRQAPGKERELVAAITSIGGSTYYADSVKGRFTISRDNAKNTVYLQMNSLKPEDTAVYYCNAQYRPLTSWYKMDYWGQGTQVTVSS | high polyreactivity
14 | QVQLVDSGAGLVQAGGSLRISCVPPDSTTQSKLGDRIHRRLGKKVTWLPVLTSRGVGSYYADSVKGRFTISRDNAKNTVYLQMNSLIPEDTAVYYCNARYEVFYRYDYWGQGTQVSVSS | low polyreactivity
15 | QVQLVESGGGLVQAGGSLRLSCAASGFIFSSNTMGWYRQAPGKERELVADITSGARTNYADSVKGRFTISRDNAKNTVYLQMNSLKPEDTAVYYCAAYPHYIYFTWYPRYTYGYWGQGTQVTVSS | low polyreactivity
16 | QVQLVESGGGLVQAGGSLRLISAASGFTFAWYTMGWYRQAPGKERELVAAITDSGDSTYYADSVKGRFTISRDNAKNTVYLQMNSLKPEDTAVYYCATRSWYWDIWITEYDYWGQGTQVTVSS | low polyreactivity
17 | QVQLVESGGGLVQAGGSLRLSCAASGNTYYGNTKGWYRQAPGKERELVAAITSGGSTYYADSVKGRFTISRDNAKNTVYLQMNSLKPEDTAVYYCNVVFYEYSSVSYDYWGQGTQVTVSS | high polyreactivity
18 | QLQLVESGGGLVQAGGSLRLSCAASGSTLYWNAMGWYRQAPGKERELVAGISIGGRTNYADSVKGRFTISRDNAKNTVYLQMNSLKPEDTAVYYCNAENTYLGSRYRPYNYWGQGTQVTVSS | low polyreactivity
19 | QVQLVESGGGLVQAGGSLRLSCAASGSTFWAYAMGWYRQAPGKERELVAAITTGGGRTFYADSVKGRFTISRDNAKNTVYLQMNSLKPEDTAVYYCAAVSQSYRMYYWGQGTQVTVSS | low polyreactivity
20 | QDQLVESGGGLVQAGGILRLICAASGLTFASYGMGWYRQAPGKERELVAAISSSGGITYYADSVKGRFTISRDNAKNTVYLQMNSLKPEDTAVYYCAAAKRSGYTGFKYYYWGQGTQVTVSS | high polyreactivity
21 | QVQLVESGGGLVQAGGSLRLSCAASGSIFYGYVMGWYRQAPGKERELVAAISRSGGRTYYADSVKGRFTISRDNAKNTVYLQMNSQKPEDTAVYDCNARQAGTPYKYAYYGRYYWGQGTQVTVSS | high polyreactivity
22 | QVQLVESGGGLVQAGGSLRLSCAASGGIFYSNAMGWYRPAPGKERELVAAISRDGTITYYADSVKGRFTISRDNAKNTVYLQMNSLKPEDTAVYYCAADASIQSWYSIYDYWGQGTQVTVSS | high polyreactivity

Row | Sequence | polyreactivity (PSR sort gate)
23 | QVQLVESGGGLVQAGGSLRLSCAASGSTFSANAMGWYRQAPGKERELVAAITYRGGNTYYADSVKGRFTISRDNAKNTVYLQMNSLKPEETAVYYCNRDLRVRYRRLKYGYWGQGTQVTVSS | low polyreactivity
24 | QVQLVESGGGLVQAGGSLRLSCAASGITFERYVMGWYIQAPGKERELVASISRSGSTFYADSVKGRFTISRDNAKNTVYLQMNSLKPEDTAVYYCNADRFWFHWVYSRYHYDYWGQGTQVTVSS | high polyreactivity
25 | QVQLVESGGGLVQAGGSLRLSCAASGITFSLYAMGWYRQAPGKERELVAAITRSGGSTYYADSVKGRFTISRDNAKNTVYLQMNSLKPEDTAVYYCAALRPGVRRYYYWGHGTQVTVSS | high polyreactivity
26 | PVQIVESGGGLVQAGGRLRLSCAASGSILVPYAMGWSRQAPGKERELVADISIRTGSTYYADSVKGRFTISRDNAKNTVYLQMYSLKPEETAVYYCNAAHRKPYTGLYYWGQGTQVTVSS | high polyreactivity
27 | QVQLVESGGGLVQAGGSLRLSCAASGGTFWYYAMGWYRQAPGKERELVASISRGGSTNYADSVKGRFTISRDNAKNTVYLQMNSLKPEDTAVYYCNAGLRVGPRRYVDYEYDYWGQGTQVTVSS | low polyreactivity
28 | QVQLVESGGGLVQAGGSLRLSCAASGSTFSYNAMGWYIQAPGKERELVAAISWSGGSTYYADSVKGRFTISRDYAKNTVYLQMNSLKPEDTAVYYCAADSPYGYYEGDYWGQGTQVTVSS | low polyreactivity
29 | QVQLVESGGGLVQAGGSLRLSCAASGSIFFDYAMGWYRQAPGKETELVAAMSSTGGSTYYADSVKGRFTISRDNSKNTVYLQMNSLIPEDTAVYYCNARYYSYSSPYDYWGEGTQVTVSS | high polyreactivity
30 | QVQLVESGGGLVQAGGSLRLSCAASGRIFPGYAMGWYRQAPGKERELVAAISGSGVRTYYADSVKGRFTISRDNAKNTFYLQMNSLKPEDTAVYYCAADSKIRTKLDYWGQGTQVTVSS | low polyreactivity
31 | QVQLVESGGGLVQAGGSLRLSCAASGLTFYHYDMGWYRQAPGIETELVAAITNGGSTYYADSVKGRFTISRDNAKNTVYLQMNSLKPEDTAVYYCAADGSGYYDWYYYWGQVTQVTVSS | low polyreactivity
32 | QVQLVESGGGLVQAVGSLRLSSAASGFIFWYYAMGWYRQAPGKERELVAAISSGGGTNYADSVKGRFTISRDNAKNTVYLQMNSLKPEDYAVYYCAAYGPLTGYDYWGQGTQVTVSS | low polyreactivity
33 | QVQLVESGGGLVQAGGSLRLSCAASGSNLVWNAMGWYRQAPGKERELVAAIDRDTTTYYADSVKGRFTISRDNAKNTVYLQMNSLKPEDTAVYYCAAESWYYLYDYWGQGTQVTVSS | high polyreactivity
34 | QVQLVESGGGLVQAGGSLRLSCAASGFTIFGYAMGWYRQAPGKERELVAAISTIDGDTYYADSVKGRFTISRDNAKNTVYLQMNSLKPEDTAVYYSAADDYIDGDDYWGQGTQVTVSS | low polyreactivity
35 | QVQLVESGGGLVQAGGSLRLSWAASGPTCGQLAMVWYRQAPGKERELVAAISYSGARTYYADSVKGRFTISRDNAKNTVDLQMNSLIPQDTAVKYCNAYSAYVNGNRRGLGYWGQGTHVTVSS | high polyreactivity
36 | QVQLVESGGGLVQAGGSLRLSCAASGITFRYYAMGWYRQAPGKERELVATISRGVRTNYADSVKGRFTISRDNAKNTVYLQMNSLKPEDTAVYYCNADYASARRYDYWGQGTQVTVSS | high polyreactivity
37 | QVQLVESGGGLVQAGGSLRLSCAASGSIFGTYAMGWYRQAPGKEREFVAAISWSDGSTYYADSVKGRFTISRDNAKNTVYLQMNSLKPEDTAVYYCAAKSDPYRHDYWGQGTQVTVSS | low polyreactivity
38 | QVQLVESGGGLGQAGGSLRLSCAASGSIFGRYAMGWYRQAPGKERELVTVITSGGSTNYADSVKGRFTISRDNAKNTVYLQMNSVKPEDTAVFYCAVRPYELHRLADQHGGDDYWGQGTQVTVSS | low polyreactivity
39 | QVQLVESGGGLVQAGGSLRLSCAASGSTFEFNDMGRYRPAPGKERELVASIRHSDGSRYYADSVKGRFTISRDNAKNTVYLQMIILKPEDTAVYDCNKAFQWSGGQVSYDYWGQGTQVTVSS | low polyreactivity
40 | QVQLVESGGGLVQAGVSLRLICAASGSIFITNFMGWYRQAPGKERELVAVISASGGSTYYADSVKGRFTISRDNAKNNVYLQMNSMKPEDTAVYYCARTQRRYSYGQMGYWGQGTQVTVSS | high polyreactivity
41 | QVQLVESGGGLVQAGGSLRLSCAASGFIFYDYDMGWYRQSPGKERELVAAISSGGSTNYADSVKGRFTISRDNAKNTVYLQMNSLIPEDTAVYYCATDVGVERRQVDRYIYDYWGQGTQVTVSS | low polyreactivity
42 | QVQLVESGGGLVQAGGSLRLTCAASGRTFYIYAMGWYRPAPGKERQLVAAITYGGGRTFYADSVKGRFTISRYNAKNTVYLQMNSLKPEDTAVYYCGATVRGKRSTYDYWGQGTQVTVSS | high polyreactivity
43 | QVQLVESGGGLVQAGGSLRLSCAASGSIFDRYAMGWYRQAPGKERELVAAISKSGGRTYYADSVKGRLTISRDNAKNTVYLQMNSLKPEDTAVYYCAADPLLGYLSHYYWGQGTQVTVSS | high polyreactivity
